Laboratory results published in paper PMC10454854, “Structural and Biochemical Analysis of the Recombination Mediator Protein RecR from Campylobacter jejuni” (International Journal of Molecular Sciences, 2023).

T1: cjRecR (Campylobacter jejuni, UniProt Q9PN35 1-190)
T1 sequence: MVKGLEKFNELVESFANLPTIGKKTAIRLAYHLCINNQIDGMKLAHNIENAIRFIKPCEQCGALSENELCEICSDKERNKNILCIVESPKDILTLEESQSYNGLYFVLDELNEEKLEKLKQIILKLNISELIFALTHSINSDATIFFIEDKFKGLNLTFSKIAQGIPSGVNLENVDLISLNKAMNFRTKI

B1: 40-mer ssDNA (ssDNA)
DNA: TTATAGGCATATAGGAGTAATTTTCTTGGGCTATGCAGTA
B2: Campylobacter jejuni RecR (natural protein, UniProt Q9PN35 1-190, looked up)
chain: T1 sequence
notes: RecR of Campylobacter jejuni subsp. jejuni (ATCC 33291), residues 1-190; cloned by PCR from genomic DNA; Expressed from a pET49b variant with an N-terminal hexahistidine tag and a thrombin site; Residues 1-189 are seen in the structure; also called cjRecR; source: E. coli BL21 (DE3), purified (Ni-NTA, thrombin cleavage, Mono Q anion exchange); not shown: His6, N-terminal, cleaved

What was measured:
[1] = molecular target: T1, cjRecR; experiment: fluorescence polarization; Fluorescence polarization: 0.8 nM fluorescein 40-mer ssDNA, protein up to 100 uM, one-site fit; buffer, salt, pH and temperature not stated; details: protein: recombinant; tags: His6 tag removed with thrombin; chain copies: 4; single strand
[2] = molecular target: the molecule itself; experiment: SEC; cjRecR alone (~300 μg in 300 μL), Superdex 200 10/300, 20 mM Tris pH 8.0, 150 mM NaCl, 5 mM βME; size against gel-filtration standards
[3] = molecular target: the molecule itself; experiment: crystal structure; crystal of cjRecR (residues 1-190), four subunits in the asymmetric unit; sitting drop, 18 °C, 17% ethanol, 0.1 M Hepes pH 7.5, 0.25 M magnesium chloride; 2.6 Å

Row | Binder | Kd [1] | stoichiometry N [2] | stoichiometry N [3]
1 | B1 | 6.8 µM |  | 
2 | B2 |  | 2 | 4
